Source: the supplement of paper PMC7877785
± gives the uncertainty stated by the source.

Assay: self-splicing fitness, log relative to wild type (ln ratio); higher = more splicing; Tetrahymena group I intron in knt gene, E. coli kanamycin selection, DiMSum; sequences stand for … in CUCUCU…GGAGGGAAAAGUUAUCAGGCAUGCACCUGGUAGCUAGUCUUUAAACCAAUAGAUUGCAUCGGUUUAAAAGGCAAGACCGUCAAAUUGCGGGAAAGGGGUCAACAGCCGUUCAGUACCAAGUCUCAGGGGAAACUUUGAGAUGGCCUUGCAAAGGGUAUGGUAAUAAGCUGACGGACAUGGUCCUAACCACGCAGCCAAGUCCUAAGUCAACAGAUCUUCUGUUGAUAUGGAUGCAGUUCACAGACUAAAUGUCGGUCGGGGAAGAUGUAUUCUUCUCAUAAGAUAUAGUCGGACCUCUCCUUAAUGGGAGCUAGCGGAUGAAGUGAUGCAACACUGGAGCCGCUGGGAACUAAUUUGUAUGCGAAAGUAUAUUGAUUAGUUUUGGAGUACUCGUGGUCG
In short: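 Pooled colonies went to amplicon sequencing on an Illumina HiSeq 2500 after six replicate transformations. The plates were LB agar with 100 μg/mL carbenicillin, 50 μM IPTG and 0.2% rhamnose, with or without 25 μg/mL kanamycin, incubated overnight at 37°C or 30°C. The E. coli BL21(DE3) library had all eight P1ex-region intron nucleotides randomised, the intron placed in the knt kanamycin-resistance gene on pET-22b(+). DiMSum fitness is the error-weighted combination of replicate fold changes, kanamycin against none, normalised to wild type.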

Sequence	self-splicing fitness (ln) (30 °C)	self-splicing fitness (ln) (37 °C)
AUUCAGCAAUAUUACGCCAG	-3.08 ± 0.22	-0.928 ± 0.22
GUCAAGCAAUAUUACGGACG	-3.64 ± 0.27	-2.01 ± 0.13
CGCUAGCAAUAUUACGACUG	-0.448 ± 0.05	0.456 ± 0.068
GAUGAGCAAUAUUACGCGGA	-2.72 ± 0.12	-2.15 ± 0.11
CACUAGCAAUAUUACGUAAG	0.264 ± 0.061	0.0438 ± 0.073
AUGAAGCAAUAUUACGAGAG	-2.78 ± 0.15	-0.788 ± 0.1
ACCAAGCAAUAUUACGGUGA	-1.68 ± 0.1	-1.29 ± 0.083
GAAUAGCAAUAUUACGGCGU	-0.554 ± 0.15	0.178 ± 0.16
UUAUAGCAAUAUUACGUAGU	-3.03 ± 0.24	-2.71 ± 0.4
CUAGAGCAAUAUUACGGUAG	-0.666 ± 0.12	-0.0273 ± 0.15
AAGCAGCAAUAUUACGAGUU	-1.95 ± 0.077	-1.07 ± 0.086
AAAAAGCAAUAUUACGUUUG	-2.65 ± 0.097	-2.01 ± 0.12
CAGGAGCAAUAUUACGGCUG	-2.97 ± 0.18	-2.37 ± 0.22
GGGCAGCAAUAUUACGUUAC	-1.84 ± 0.16	-0.903 ± 0.23
ACAGAGCAAUAUUACGGCGU	-1.24 ± 0.12	-0.0954 ± 0.11
AGGAAGCAAUAUUACGGAUG	-3.64 ± 0.2	-2.37 ± 0.22
UAAUAGCAAUAUUACGGCCG	-0.212 ± 0.12	0.0754 ± 0.16
UACCAGCAAUAUUACGUCUC	-2.4 ± 0.14	-2.26 ± 0.18
CAGUAGCAAUAUUACGUGAA	-3.97 ± 0.34	-2.15 ± 0.22
GCCAAGCAAUAUUACGGGCA	-2.12 ± 0.14	-0.482 ± 0.12
CUGAAGCAAUAUUACGAGCU	-3.42 ± 0.21	-2.84 ± 0.27
UAUUAGCAAUAUUACGCCAC	–	-0.751 ± 0.48
ACUGAGCAAUAUUACGCAUA	-2.14 ± 0.31	-1.77 ± 0.44
AAGCAGCAAUAUUACGGCGG	-1.13 ± 0.12	-1.01 ± 0.14

Sequence	self-splicing fitness (ln) (30 °C)	self-splicing fitness (ln) (37 °C)
UAAAAGCAAUAUUACGUUAA	-2.14 ± 0.15	-1.38 ± 0.13
UCGAAGCAAUAUUACGAGUG	-1.56 ± 0.1	-1.52 ± 0.15
CCGCAGCAAUAUUACGCAGC	-3.86 ± 0.28	-1.62 ± 0.19
AACGAGCAAUAUUACGCAUA	-2.86 ± 0.38	-1.26 ± 0.35
GUAGAGCAAUAUUACGGGCU	-2.37 ± 0.3	-1.89 ± 0.41
AGUGAGCAAUAUUACGUAAG	-3.1 ± 0.43	-2.48 ± 0.41
UAACAGCAAUAUUACGUAAU	-3.27 ± 0.14	-2.23 ± 0.14
CAUAAGCAAUAUUACGGGUA	-3.36 ± 0.21	-2.64 ± 0.17
GAUUAGCAAUAUUACGCCGU	-1.61 ± 0.15	-0.986 ± 0.25
UAAGAGCAAUAUUACGGAUA	-2.84 ± 0.44	-1.54 ± 0.4
UAGUAGCAAUAUUACGUGCG	-1.52 ± 0.12	-0.311 ± 0.15
UGGUAGCAAUAUUACGCAGU	-3.14 ± 0.4	-2.76 ± 0.4
AUGGAGCAAUAUUACGACUA	-1.08 ± 0.14	-1.33 ± 0.16
AGCUAGCAAUAUUACGCUUA	-1.8 ± 0.19	-2.01 ± 0.19
GGGUAGCAAUAUUACGGGCU	-0.35 ± 0.081	0.282 ± 0.13
GGACAGCAAUAUUACGAAGC	-0.729 ± 0.079	0.158 ± 0.097
UAAAAGCAAUAUUACGCUGC	-2.51 ± 0.18	-1.35 ± 0.26
UAUUAGCAAUAUUACGUCUA	-0.265 ± 0.091	0.324 ± 0.12
CUCCAGCAAUAUUACGUCAU	-2.15 ± 0.13	-2.84 ± 0.24
UGCAAGCAAUAUUACGAUCG	-0.2 ± 0.07	0.647 ± 0.093
ACCAAGCAAUAUUACGGGAU	-2.53 ± 0.088	-1.39 ± 0.083
GAUGAGCAAUAUUACGAGCC	-0.987 ± 0.31	-1.53 ± 0.41
GUAAAGCAAUAUUACGGAGU	-3.08 ± 0.26	-2.81 ± 0.29
UCCGAGCAAUAUUACGUGAU	-4.03 ± 0.4	-1.91 ± 0.41

Sequence	self-splicing fitness (ln) (30 °C)	self-splicing fitness (ln) (37 °C)
GCAUAGCAAUAUUACGAAUG	-2.33 ± 0.096	-1.85 ± 0.12
GUUCAGCAAUAUUACGCGAU	-2.39 ± 0.13	-2.74 ± 0.24
AUUGAGCAAUAUUACGCCAU	-3.54 ± 0.24	-1.69 ± 0.19
UUUUAGCAAUAUUACGCAAG	-1.08 ± 0.15	-1.14 ± 0.21
AGGAAGCAAUAUUACGAGUG	-2.62 ± 0.13	-1.8 ± 0.14
GAAGAGCAAUAUUACGUAGC	-2.27 ± 0.21	-2.31 ± 0.21
AUGAAGCAAUAUUACGAACG	-0.583 ± 0.094	0.0323 ± 0.12
AAACAGCAAUAUUACGCGGG	-2.69 ± 0.097	-0.988 ± 0.073
AGACAGCAAUAUUACGAAGU	-3.47 ± 0.14	-2.26 ± 0.15
GAACAGCAAUAUUACGAGAG	-3.49 ± 0.17	-1.83 ± 0.1
UCAUAGCAAUAUUACGAACA	-1.78 ± 0.17	-0.838 ± 0.16
GGACAGCAAUAUUACGGAUC	-1.3 ± 0.11	0.26 ± 0.13
ACCUAGCAAUAUUACGGAAU	-1.96 ± 0.08	-1.19 ± 0.09
AGUUAGCAAUAUUACGGUAG	-3.77 ± 0.3	-2.11 ± 0.34
GUGGAGCAAUAUUACGAAGA	–	-2.05 ± 0.49
UAGCAGCAAUAUUACGAGUG	-1.02 ± 0.075	-0.131 ± 0.075
CUGAAGCAAUAUUACGUGGG	-2.66 ± 0.095	-1.89 ± 0.11
UUAAAGCAAUAUUACGCCUG	0.63 ± 0.16	1 ± 0.17
AGAAAGCAAUAUUACGUGCC	-0.45 ± 0.12	-0.309 ± 0.16
UAGCAGCAAUAUUACGUCAG	-0.628 ± 0.1	-1.13 ± 0.12
GUUCAGCAAUAUUACGCUAG	-0.585 ± 0.073	-0.102 ± 0.093
GCAAAGCAAUAUUACGGAAG	-1.96 ± 0.14	-0.343 ± 0.16
AAUAAGCAAUAUUACGCGCC	-0.204 ± 0.15	-0.572 ± 0.16
AGAUAGCAAUAUUACGGUGG	-1.66 ± 0.12	-2.23 ± 0.16

Sequence	self-splicing fitness (ln) (30 °C)	self-splicing fitness (ln) (37 °C)
GGACAGCAAUAUUACGUUGU	-3.63 ± 0.14	-3.51 ± 0.18
CCGGAGCAAUAUUACGAGCA	–	-0.395 ± 0.25
CCAGAGCAAUAUUACGUUCA	-2.45 ± 0.32	-2.32 ± 0.34
UAACAGCAAUAUUACGGCUU	-0.716 ± 0.082	-0.0863 ± 0.1
UGCAAGCAAUAUUACGAUUU	-1.16 ± 0.09	-1.05 ± 0.1
GCUAAGCAAUAUUACGUGGU	-3.27 ± 0.19	-2.5 ± 0.18
UGAAAGCAAUAUUACGCGAG	-1.63 ± 0.11	-0.0143 ± 0.1
CGGAAGCAAUAUUACGGUCC	-3.37 ± 0.27	-0.831 ± 0.13
UCAUAGCAAUAUUACGCCGC	-3.77 ± 0.33	-1.61 ± 0.41
AAAGAGCAAUAUUACGGUCG	-2.47 ± 0.16	-1.58 ± 0.15
CAACAGCAAUAUUACGUAUC	-1.96 ± 0.16	-2.75 ± 0.18
GUGGAGCAAUAUUACGGGAA	-2.15 ± 0.28	-3.23 ± 0.35
AUAUAGCAAUAUUACGGUUA	-1.12 ± 0.13	-0.372 ± 0.12
AGAGAGCAAUAUUACGAGAU	-2.92 ± 0.37	-1.38 ± 0.27
AGUAAGCAAUAUUACGUAGC	-4.37 ± 0.42	-3.1 ± 0.47
AAAGAGCAAUAUUACGAACG	-3.87 ± 0.21	-1.74 ± 0.13
AUGAAGCAAUAUUACGAUAG	-4.07 ± 0.39	-2.33 ± 0.32
AUCUAGCAAUAUUACGAGGC	–	-2.69 ± 0.34
UAUUAGCAAUAUUACGUUGA	-3.32 ± 0.29	-2.17 ± 0.23
CACGAGCAAUAUUACGCGAG	-1.52 ± 0.17	-2.5 ± 0.26
GAUAAGCAAUAUUACGACAU	-0.4 ± 0.012	0.0172 ± 0.032
UCUCAGCAAUAUUACGUGUC	-3.41 ± 0.14	-3.2 ± 0.17
UUAAAGCAAUAUUACGCUAC	-3.55 ± 0.26	-1.91 ± 0.2
UACCAGCAAUAUUACGGACC	-0.962 ± 0.071	-0.872 ± 0.086
